This series concerns the target M-L3-IL12 (masked mouse IL-12 whose linker contains 3 repeats of LSGRSDNH) (UniProt Q60837).

M-L3-IL12 (masked mouse IL-12 whose linker contains 3 repeats of LSGRSDNH), sequence (Q60837 whole entry, looked up): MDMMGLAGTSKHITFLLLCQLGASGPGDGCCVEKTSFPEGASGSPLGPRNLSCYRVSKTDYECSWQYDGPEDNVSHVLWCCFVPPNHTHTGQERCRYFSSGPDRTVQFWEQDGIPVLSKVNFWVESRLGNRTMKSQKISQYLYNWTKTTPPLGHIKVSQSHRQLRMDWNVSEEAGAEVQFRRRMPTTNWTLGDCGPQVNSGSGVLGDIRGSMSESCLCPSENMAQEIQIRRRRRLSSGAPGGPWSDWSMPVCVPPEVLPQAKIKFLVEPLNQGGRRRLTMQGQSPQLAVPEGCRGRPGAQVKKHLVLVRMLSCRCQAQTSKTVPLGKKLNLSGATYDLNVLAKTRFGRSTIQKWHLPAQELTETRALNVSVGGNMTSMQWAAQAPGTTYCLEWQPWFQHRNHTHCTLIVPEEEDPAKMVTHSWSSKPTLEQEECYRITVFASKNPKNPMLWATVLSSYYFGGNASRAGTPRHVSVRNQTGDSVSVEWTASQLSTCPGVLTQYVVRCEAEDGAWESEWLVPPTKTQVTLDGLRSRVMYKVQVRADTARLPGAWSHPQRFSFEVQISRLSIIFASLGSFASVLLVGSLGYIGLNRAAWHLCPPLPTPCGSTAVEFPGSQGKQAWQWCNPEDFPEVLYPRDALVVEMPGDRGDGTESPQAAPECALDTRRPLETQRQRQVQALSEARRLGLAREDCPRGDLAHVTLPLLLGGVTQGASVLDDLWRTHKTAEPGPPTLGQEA

For the substance “recombinant human urokinase plasminogen activator”, the “in vitro cleavage, 30 min at 37° C., SDS-PAGE” value is “Decrease of molecular weight from ˜105 kDa to ˜60 kDa indicates proteolytic cleavage of IL12Rβ1-VP-IL12 and IL12Rβ1-LS-IL12”.

The record behind these values is patent US20240228586.
